T1: murine IL-10 receptor IgG immunoadhesin (murine, UniProt Q61727 17-241)
T1 construct: Used as specificity control; also called murine IL-10 R immunoadhesin; murine IL-10 receptor immunoadhesin; not shown: IgG backbone
T1 sequence (looked up): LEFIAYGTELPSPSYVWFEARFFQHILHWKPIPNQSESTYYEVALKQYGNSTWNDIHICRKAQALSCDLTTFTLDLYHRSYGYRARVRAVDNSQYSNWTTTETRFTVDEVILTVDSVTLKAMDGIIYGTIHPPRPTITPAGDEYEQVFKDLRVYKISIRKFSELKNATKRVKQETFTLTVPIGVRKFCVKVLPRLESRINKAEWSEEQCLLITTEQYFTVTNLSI

T2: murine IL-4 receptor IgG immunoadhesin (murine, UniProt P16382 26-233)
T2 construct: Tested as concentrated supernatant of vaccinia-infected cells; also called murine IL-4 receptor immunoadhesin; mIL-4R IgG immunoadhesin; not shown: IgG backbone
T2 sequence (looked up): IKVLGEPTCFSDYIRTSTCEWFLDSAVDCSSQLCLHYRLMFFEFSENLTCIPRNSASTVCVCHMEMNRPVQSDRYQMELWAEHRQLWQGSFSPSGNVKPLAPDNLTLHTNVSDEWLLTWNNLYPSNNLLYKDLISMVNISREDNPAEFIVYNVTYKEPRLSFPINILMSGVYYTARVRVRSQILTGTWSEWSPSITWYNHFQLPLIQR

T3: human IL-10 receptor IgG immunoadhesin (human, UniProt Q13651 22-235)
T3 construct: extracellular domain; Tested as concentrated supernatant of cells infected with recombinant vaccinia; also called human IL-10R adhesin; human IL-10 R adhesin; not shown: human IgG1 heavy chain hinge, CH2 and CH3 domains, amplified from ARH-77 cDNA; joined through a SalI site; residue limit
T3 sequence (looked up): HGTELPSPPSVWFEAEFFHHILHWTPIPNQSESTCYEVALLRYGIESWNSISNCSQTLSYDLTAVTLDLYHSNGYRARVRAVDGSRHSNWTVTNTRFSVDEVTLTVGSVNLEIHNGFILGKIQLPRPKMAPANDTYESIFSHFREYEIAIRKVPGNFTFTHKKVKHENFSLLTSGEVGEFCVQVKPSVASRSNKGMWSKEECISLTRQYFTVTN

T4: human IL-10 receptor immunoadhesin (isotype not stated, control of FIG. 3 bottom) (human, UniProt Q13651 22-235)
T4 construct: extracellular domain; not shown: human IgG1 or IgA1 hinge-CH2-CH3
T4 sequence (looked up): T3 sequence (looked up)

B1: human IL-10 (ligand, UniProt P22301 19-178, looked up)
chain: SPGQGTQSENSCTHFPGNLPNMLRDLRDAFSRVKTFFQMKDQLDNLLLKESLLEDFKGYLGCQALSEMIQFYLEEVMPQAENQDPDIKAHVNSLGENLKTLRLRLRRCHRFLPCENKSKAVEQVKNAFNKLQEKGIYKAMSEFDIFINYIEAYMTMKIRN
notes: also called hIL-10
B2: murine IL-4 (ligand, UniProt P07750 21-140, looked up)
chain: HIHGCDKNHLREIIGILNEVTGEGTPCTEMDVPNVLTATKNTTESELVCRASKVLRIFYLKHGKTPCLKKNSSVLMELQRLFRAFRCLDSSISCTMNESKSTSLKDFLESLKSIMQMDYS
notes: also called mIL-4

Columns and labels:
[1] = target: T1, murine IL-10 receptor IgG immunoadhesin; assay: bead depletion assay (immunoadhesin on beads, unbound hIL-10 in filtrate by ELISA), FIG. 1 top
[2] = target: T2, murine IL-4 receptor IgG immunoadhesin; assay: as above
[3] = target: T3, human IL-10 receptor IgG immunoadhesin; assay: bead depletion assay, unbound hIL-10 by ELISA, FIG. 1 top
[4] = target: T4, human IL-10 receptor immunoadhesin …; assay: ELISA inhibition, FIG. 3 bottom
[5] = target: T1, murine IL-10 receptor IgG immunoadhesin; assay: bead depletion assay, FIG. 3 top

| Binder | binding result [1] | binding result [2] | binding result [3] | binding result [4] | binding result [5] |
| --- | --- | --- | --- | --- | --- |
| B1 | no binding (tested: 250 µl of 200 pg/100 µl of hIL-10) | no binding (tested: 250 µl of 200 pg/100 µl of hIL-10) | binds | – | – |
| B2 | – | – | – | no binding | no binding (tested: 250 µl of 200 pg/100 µl of mIL-4) |

Source: patent US20030206886A1 (UNIVERSITY OF MEDICINE AND DENTISTRY OF NEW JERSEY, published 2003)
